Reference: patent publication US20110064726A1 (published 2011)

Key:
[1] = molecular target: T1, human IgE (full length human immunoglobulin E) (human, UniProt P01854 1-546); assay: serum free IgE depletion ELISA; DIN 0623 experiment 2, initial free IgE 133 ng/mL
[2] = molecular target: T1, human IgE (full length human …); assay: serum free IgE depletion ELISA; DIN 0748, initial free IgE 4609 ng/mL
[3] = molecular target: T1, human IgE (full length human …); assay: serum free IgE depletion ELISA; DIN 0591, initial free IgE 152 ng/mL
[4] = molecular target: T1, human IgE (full length human …); assay: serum free IgE depletion ELISA; DIN 0451 experiment 2, initial free IgE 534 ng/mL
[5] = molecular target: T1, human IgE (full length human …); assay: serum free IgE depletion ELISA; DIN 0321 experiment 2, initial free IgE 265 ng/mL
[6] = molecular target: T1, human IgE (full length human …); assay: serum free IgE depletion ELISA; DIN 0321 experiment 1, initial free IgE 262 ng/mL
[7] = molecular target: T1, human IgE (full length human …); assay: serum free IgE depletion ELISA; DIN 0451 experiment 1, initial free IgE 557 ng/mL
[8] = molecular target: T1, human IgE (full length human …); assay: serum free IgE depletion ELISA; DIN 0632 experiment 1, initial free IgE 532 ng/mL
[9] = molecular target: T2, human IgG3 (human, UniProt P01860-1 1-377); assay: ELISA, immunoglobulin coated at 4 µg/mL, anti-human IgG2 detection
T2 construct: bought preparation coated on the ELISA plate; not shown: bought immunoglobulin, light chain not described
T2 sequence (P01860 other isoform, or with tags, fused parts or gaps): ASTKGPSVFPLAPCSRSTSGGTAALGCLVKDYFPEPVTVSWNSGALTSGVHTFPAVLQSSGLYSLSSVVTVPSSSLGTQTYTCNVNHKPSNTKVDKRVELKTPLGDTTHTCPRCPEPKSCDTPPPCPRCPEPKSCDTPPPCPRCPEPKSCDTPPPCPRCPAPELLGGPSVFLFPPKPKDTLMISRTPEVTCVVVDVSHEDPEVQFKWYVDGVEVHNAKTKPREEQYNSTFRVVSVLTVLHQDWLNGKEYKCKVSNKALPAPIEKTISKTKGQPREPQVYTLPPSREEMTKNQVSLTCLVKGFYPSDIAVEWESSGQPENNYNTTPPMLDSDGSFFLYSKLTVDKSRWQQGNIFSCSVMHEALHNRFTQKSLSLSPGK
Experimental: (§1) Wells were washed 3× with 150 μL wash buffer (0.05% Tween-20 (Sigma, Cat. No. P7949)/PBS) then blocked with 150 μL/well blocking buffer (2.5% BSA (Sigma, Cat. No. A7030)/PBS) for 2 hours at room temperature. Wells were washed 3× with 150 μL wash buffer/well. […] Antibodies were diluted in diluent buffer (PBS/1% BSA/0.05% Tween-20) and this was added to blank control wells (duplicate wells for each secondary antibody used). Antibodies were incubated for 2 hours at room temperature. Wells were washed 3× with 150 μL wash buffer/well. Binding of control antibodies to immunoglobulin was detected with anti-mouse IgG-HRP conjugate (Sigma, Cat. No. A4416) diluted 1:8000 in diluent buffer. 50 μL/well was added to control antibody and blank wells. Wells were incubated for 1 hour at room temperature, then washed 3× with 150 μL wash buffer/well. 50 μl OPD (Dako, Cat. No. […] Wells were incubated for 1 hour at room temperature then washed 3× with 150 μL wash buffer/well. Streptavidin-HRP (Amersham Bioscience, Cat. No. RPN 1231) diluted 1:2000 in diluent buffer was added to all wells and incubated for 45 minutes at room temperature. Wells were washed (3×150 μL wash buffer).

[10] = molecular target: T3, human IgG1 (human, UniProt P01857-1 1-330 = IgG part); assay: as above
T3 construct: bought preparation coated on the ELISA plate; not shown: bought immunoglobulin, light chain not described
T3 sequence (P01857 other isoform, or with tags, fused parts or gaps): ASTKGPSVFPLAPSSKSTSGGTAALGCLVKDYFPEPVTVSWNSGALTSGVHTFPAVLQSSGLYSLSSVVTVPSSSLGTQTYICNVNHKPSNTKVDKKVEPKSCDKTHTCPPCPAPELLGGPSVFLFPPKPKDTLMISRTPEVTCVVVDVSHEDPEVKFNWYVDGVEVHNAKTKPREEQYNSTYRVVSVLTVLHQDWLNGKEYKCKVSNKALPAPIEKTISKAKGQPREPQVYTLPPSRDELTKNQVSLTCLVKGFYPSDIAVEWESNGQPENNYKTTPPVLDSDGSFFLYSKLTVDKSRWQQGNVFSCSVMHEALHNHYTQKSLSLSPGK
Experimental: as §1

[11] = molecular target: T1, human IgE (full length human …); assay: as above
Experimental: as §1

[12] = molecular target: T4, human IgA (human); assay: as above
T4 construct: bought preparation coated on the ELISA plate
Experimental: as §1

[13] = molecular target: T1, human IgE (full length human …); assay: serum free IgE depletion ELISA; DIN 0347, initial free IgE 221 ng/mL
[14] = molecular target: T1, human IgE (full length human …); assay: serum free IgE depletion ELISA; DIN 0284, initial free IgE 339 ng/mL
[15] = molecular target: T1, human IgE (full length human …); assay: serum free IgE depletion ELISA; DIN 0011 experiment 2, initial free IgE 326 ng/mL
[16] = molecular target: T1, human IgE (full length human …); assay: serum free IgE depletion ELISA; DIN 0632 experiment 2, initial free IgE 289 ng/mL
[17] = molecular target: T1, human IgE (full length human …); assay: serum free IgE depletion ELISA; DIN 0011 experiment 1, initial free IgE 555 ng/mL
[18] = molecular target: T1, human IgE (full length human …); assay: serum free IgE depletion ELISA; DIN 0155, initial free IgE 93 ng/mL
[19] = molecular target: T1, human IgE (full length human …); assay: serum free IgE depletion ELISA; DIN 0649, initial free IgE 93 ng/mL
[20] = molecular target: T1, human IgE (full length human …); assay: serum free IgE depletion ELISA; DIN 0623 experiment 1, initial free IgE 145 ng/mL
[21] = molecular target: T1, human IgE (full length human …); assay: serum free IgE depletion ELISA; DIN 0382, initial free IgE 2827 ng/mL

T1 sequence (P01854 whole entry): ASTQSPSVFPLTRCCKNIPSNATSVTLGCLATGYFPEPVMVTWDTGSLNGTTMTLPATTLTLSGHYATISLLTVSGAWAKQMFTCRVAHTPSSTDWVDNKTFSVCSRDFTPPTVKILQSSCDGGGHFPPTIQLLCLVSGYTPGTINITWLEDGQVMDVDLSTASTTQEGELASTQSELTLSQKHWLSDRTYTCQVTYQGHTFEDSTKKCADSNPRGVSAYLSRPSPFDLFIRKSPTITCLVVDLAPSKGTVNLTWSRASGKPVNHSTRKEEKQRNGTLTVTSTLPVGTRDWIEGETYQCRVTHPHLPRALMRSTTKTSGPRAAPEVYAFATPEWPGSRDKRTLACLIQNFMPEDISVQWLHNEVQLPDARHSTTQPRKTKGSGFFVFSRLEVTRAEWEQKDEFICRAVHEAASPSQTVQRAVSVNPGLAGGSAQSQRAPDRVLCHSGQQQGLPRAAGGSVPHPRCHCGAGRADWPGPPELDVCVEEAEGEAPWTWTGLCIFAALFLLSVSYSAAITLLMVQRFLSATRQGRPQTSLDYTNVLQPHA

B1: recombinant 5.948.1 (antibody, human IgG2, kappa, V domains shown)
VH: QVQLVQSGAEVKKPGASVKVSCKASGYTFTSYDINWVRQATGQGLEWMGWMDPNSGNTGYAQKFQGRVTMTRNTSISTAYMELSSLRSEDTAVYYCARGHYDSDGYYSFSGMDVWGQGTTVTVSS
VL: not shown
notes: human IgG2 kappa; two batches (762.8 µg/mL and 5.2 mg/mL) were tested; also called 5.948.1 (recombinant); 5.948.1 - Batch 1
B1 was tested. Which IC25ng/mL [1] did it give?
Its IC25ng/mL is 4.13 µg/mL.

What about the IC25ng/mL [2] of the same binder?
The IC25ng/mL was 25.1 µg/mL.

And the IC25ng/mL [3]?
The IC25ng/mL was 2.35 µg/mL.

What about the IC25ng/mL [4] of the same binder?
Its IC25ng/mL is 39.7 µg/mL.

What about the IC25ng/mL [5] of the same binder?
The IC25ng/mL was 7.9 µg/mL.

And the IC25ng/mL [6]?
Its IC25ng/mL is 1.34 µg/mL.

What about the IC25ng/mL [7] of the same binder?
Its IC25ng/mL is 11.6 µg/mL.

What about the IC25ng/mL [8] of the same binder?
The IC25ng/mL was 8.91 µg/mL.

And the A290 nm [9]?
The A290 nm was 0.04 absorbance.

And the A290 nm [10]?
Its A290 nm is 0.07 absorbance.

And the A290 nm [11]?
Its A290 nm is 2.57 absorbance.

And the A290 nm [12]?
Its A290 nm is 0.04 absorbance.

What about the IC25ng/mL [13] of the same binder?
The IC25ng/mL was 4.92 µg/mL.

What about the IC25ng/mL [14] of the same binder?
Its IC25ng/mL is 2.45 µg/mL.

What about the IC25ng/mL [15] of the same binder?
The IC25ng/mL was 6.34 µg/mL.

And the IC25ng/mL [16]?
Its IC25ng/mL is 6.31 µg/mL.

What about the IC25ng/mL [17] of the same binder?
Its IC25ng/mL is 3.3 µg/mL.

And the IC25ng/mL [18]?
The IC25ng/mL was 1.81 µg/mL.

And the IC25ng/mL [19]?
The IC25ng/mL was 1.95 µg/mL.

And the IC25ng/mL [20]?
Its IC25ng/mL is 0.5 µg/mL.

And the IC25ng/mL [21]?
Its IC25ng/mL is 25 µg/mL.
